According to patent publication US9096835B2, “DNA polymerase” (Medical Research Council, priority 2003, dated 2015):
Values joined by “and” are separate entries in the source; they are usually repeats but may differ in a detail not shown here. Identical values can stand only once. “Also recorded” adds a separate entry of the source.

What was measured:
Assay type in all cases: biochemical
[1] = system: primer-template duplex, correct or incorrect incoming dNTP; assay: Steady-state single nucleotide incorporation kinetics, gel-based assay
Procedure: Kinetic parameters were determined using a gel-based assay essentially as described (16). Primers 15, 16, 17 (3′ base=G, C, A respectively) were ^32P-labeled and annealed to one of template strands 18, 19, 20 (template base=C, G, A respectively) or 21 (template base C different context). Duplex substrates were used at 50 nM final concentration in 1× Taq buffer with various concentrations of enzyme and dNTP. Reactions were carried out at 60° C. for times whereby <20% of primer-template was utilized at the highest concentration of dNTP.
Extension and incorporation kinetics of M1 and M4 for a selection of mismatches were measured using a gel-based steady-state kinetic assay (Goodman) (Tables 1 & 2). M1 and M4 respectively extend a C•C mispair 390 and 75-fold more efficiently than wtTaq. […] The gain in extension efficiency derives predominantly from increased relative Vmax values for the mutant polymerases, while Km for nucleotide substrates remains largely unchanged. For most DNA polymerases the relative efficiency of extending a given mispair (f0ext) is similar to the relative efficiency of forming it (finc) (Goodman 1993, Goodman 1990, Washington 2001). Indeed, M1 and M4 respectively incorporate dCTP opposite template base C 206- and 29-fold more efficiently than wtTaq (Table 2).

[2] = system: primer-template DNA substrates; assay: Processivity primer extension assay with and without trap DNA; conditions: for bound polymerase that extended primers to the end of the template: in the presence of trap DNA (single DNA binding event); for termination probability: positions 6 and 7
Procedure: Processivity was measured using a primer extension assay the presence and absence of trap DNA. Termination probabilities were calculated according to the method of Kokoska et al.
Oligonucleotide primer 32 (5′-GCGGTGTAGAGACGAGTGCGGAG-3′) (SEQ ID NO: 117) was ^32P-labelled and annealed to the template 33 (5′-CTCTCACAAGCAGCCAGGCAAGCTCCGCACTCGTCTCTACACCGCTCCGC-3′ (SEQ ID NO: 118)) (at a primer/template ratio of molar 1/1.5). wtTaq (0.0025 nM; 0.025 nM; 0.25 nM), M1(0.05 nM; 0.5 nM; 5 nM), and M4 (0.05 nM; 0.5 nM; 5 nM) were preincubated with the primer-template DNA substrates (10 nM) in 10 mM Tris-HCl at pH 9.0, 5 mM MgCl2, 50 mM KCl, 0.1% Triton X 100 at 25° C. for 15 min. Reactions were initiated by addition of 100 μM dNTPs with or without trap DNA (1000-fold excess of unlabeled primer-templates). Reactions were performed at 60° C. for 2 min. […] Thus, in the presence of trap DNA, all DNA synthesis resulted from a single DNA binding event. Gel band intensities were calculated using a Phosphoimager and ImageQuant (both Molecular Dynamics) software. Percentage of polymerase molecules, which extended primers to the end of the template was calculated using the formula: In×100%/(I1+I2+ . . . +In), where In is the intensity of the band at position 22 or 23; I1, I2 . . . is the intensity of the band at position 1, 2 . . . . Termination probabilities (τ) were calculated according to the method of Kokoska et al^1, whereby t at a particular template position was calculated as the intensity of the band at this position divided by the sum of the intensity of this band and the band intensities of all longer products.

[3] = system: primers with 3′ transversion mismatches; assay: Mismatch extension PCR assay; conditions: G•A, C•C, G•G mismatched primers
Procedure: A PCR assay was used to screen and rank clones. Briefly, clones were normalized for activity in PCR with matched primers 3, 4 and activity with mismatched primers 1 and 2 (1 μM each) determined at minimal cycle number (15-25 cycles). Extension capability for different mismatches was determined by the same assay using mismatch primers 2 (C•C mismatch), 5 (A•A mismatch), 6 (G•G mismatch), 7 (G•A mismatch) with matched primer 3 or primer 1 (A•G mismatch) with matched primer 4. Incorporation of unnatural substrates in 50 cycle PCR was carried out using standard conditions and 50 μM […] dNTPs (Promega) or 50 μM FITC-12-dATP (Perkin-Elmer), Rhodamine-5-dUTP (Perkin-Elmer) or Biotin-16-dUTP (Roche) with equivalent amounts of the other 3 dNTPs (all 50 μM). Long PCR was carried out using a two-step cycling protocol as described (22) 94° C. for 2 minutes, followed by 20 cycles of (94° C. 15 sec, 68° C. 30 min) using 5 ng of phage λ DNA (New England Biolabs) template and either primers 9, 10, 11 with primer 12 or primer 13 with primers 10, 14.

undamaged template = assay: Translesion replication assay, control; conditions: gel-extension assay, 60° C.
Procedure: Template primers 22 (undamaged) or 23 (containing a synthetic abasic site) were synthesized by Lofstrand Laboratories (Gaithersburg, Md.). Template primer 24 (containing a single cis-syn thymine dimer), was synthesized as described (34). Primer 25 was ^32P-labeled and annealed to one of the three templates 22, 23, 24 (at a primer template ratio of molar 1:1.5) and extended in 40 mM Tris.HCl at pH 8.0, 5 mM MgCl2, 100 μM of each dNTP, 10 mM DTT, 250 μg/ml BSA, 2.5% glycerol, 10 nM primer-template DNA and 0.1 Unit of polymerase at 60° C. for various times.

[4] = base pair C: dCTP (template base: incoming nucleotide)
[5] = base pair C: dGTP (template base: incoming nucleotide), correct dNTP
[6] = base pair C: dGTP, correct dNTP
[7] = base pair G: dATP (template base: incoming nucleotide)
[8] = base pair G: dCTP (template base: incoming nucleotide), correct dNTP
[9] = base pair G: dCTP, correct dNTP
[10] = base pair G: dGTP (template base: incoming nucleotide)
[11] = base pair G: dTTP (template base: incoming nucleotide)

Ratio of finc, finc (mutant polymerase)/finc (wtTaq) ([1]; base pair C: dCTP)	Ratio of finc, finc (mutant polymerase)/finc (wtTaq) ([1]; base pair G: dATP)	Ratio of finc, finc (mutant polymerase)/finc (wtTaq) ([1]; base pair G: dGTP)	Ratio of finc, finc (mutant polymerase)/finc (wtTaq) ([1]; base pair G: dTTP)	Molecule	Km ([1]; base pair C: dCTP) [µM]	finc, f (incorrect dNTP)/f (correct dNTP) ([1]; base pair C: dCTP)	Vmax [1, 4] [% Min^−1]	Vmax [1, 5] [% Min^−1]	Km [1, 6] [µM]	Km ([1]; base pair G: dATP) [µM]	finc, f (incorrect dNTP)/f (correct dNTP) ([1]; base pair G: dATP)	Vmax [1, 7] [% Min^−1]	Vmax [1, 8] [% Min^−1]	Km [1, 9] [µM]	Km ([1]; base pair G: dGTP) [µM]	finc, f (incorrect dNTP)/f (correct dNTP) ([1]; base pair G: dGTP)	Vmax [1, 10] [% Min^−1]	Km ([1]; base pair G: dTTP) [µM]	finc, f (incorrect dNTP)/f (correct dNTP) ([1]; base pair G: dTTP)	Vmax [1, 11] [% Min^−1]	further results
1	1	1	1	wtTaq: Thermus aquaticus (Taq) wild type DNA polymerase [reference compound]	1330	3.86 × 10^−8	3.3	2356.02	0.0366	259	8.27 × 10^−5	1973.68	1477	0.016	365	1.7 × 10^−6	57.47	1.64	1.65 × 10^−4	25.08	bound polymerase that extended primers to the end of the template [2]: 13%; termination probability [2]: 5%; extension of 3′ transversion mismatches in PCR [3]: unable to extend; primer extension on undamaged template (undamaged template): efficiently and rapidly extended primers to the end of the template
206 and 206.74	2.08	21.88	2.43	M1: Taq mutant G84A, D144G, K314R, E520G, F598L, A608V, E742G; SEQ ID NO: 1 (protein, Mutant Thermus aquaticus DNA polymerase) MRGMLPLFEPKGRVLLVDGHHLAYRTFHALKGLTTSRGEPVQAVYGFAKSLLKALKEDGDAVIVVFDAKAPSFRHEAYGGYKAARAPTPEDFPRQLALIKELVDLLGLARLEVPGYEADDVLASLAKKAEKEGYEVRILTADKGLYQLLSDRIHVLHPEGYLITPAWLWEKYGLRPDQWADYRALTGDESDNLPGVKGIGEKTARKLLEEWGSLEALLKNLDRLKPAIREKILAHMDDLKLSWDLAKVRTDLPLEVDFAKRREPDRERLRAFLERLEFGSLLHEFGLLESPKALEEAPWPPPEGAFVGFVLSRREPMWADLLALAAAAGGRVHRAPEPYKALRDLKEARGLLAKDLSVLALREGLGLPPGDDPMLLAYLLDPSNTTPEGVARRYGGEWTEEAGERAALSERLFANLWGRLEGEERLLWLYREVERPLSAVLAHMEATGVRLDVAYLRALSLEVAEEIARLEAEVFRLAGHPFNLNSRDQLERVLFDELGLPAIGKTEKTGKRSTSAAVLGALREAHPIVEKILQYRELTKLKSTYIDPLPDLIHPRTGRLHTRFNQTATATGRLSSSDPNLQNIPVRTPLGQRIRRAFIAEEGWLLVVLDYSQIELRVLAHLSGDENLIRVFQEGRDIHTETASWMFGVPREAVDPLMRRAAKTINFGVLYGMSAHRLSQELAIPYEEAQAFIERYFQSFPKVRAWIEKTLEEGRRRGYVETLFGRRRYVPDLEARVKSVRGAAERMAFNMPVQGTAADLMKLAMVKLFPRLEEMGARMLLQVHDELVLEAPKERAEAVARLAKEVMEGVYPLAVPLEVEVGIGEDWLSAKE	264	7.97 × 10^−6	6.08	111.66	0.0387	257	1.72 × 10^−4	681.82	308	0.02	377	3.72 × 10^−5	215.98	1.65	4.01 × 10^−4	10.19	processivity compared with wtTaq ([2]; even at the lowest enzyme concentrations): processivity equal (or higher) than wtTaq; bound polymerase that extended primers to the end of the template [2]: 28%; termination probability [2]: 1%; extension of 3′ transversion mismatches in PCR [3]: greatly increased ability to extend; also recorded: generate amplification products; primer extension on undamaged template (undamaged template): efficiently and rapidly extended primers to the end of the template
